Where only a bound is given, the exact number is not on record here.

This data set deals with Saccharomyces cerevisiae. Kind of data set: transcriptional activation domain activity (GFP:mCherry ratio, weighted mean of sorted bins, harmonized to initial dataset scale) (arbitrary fluorescence ratio units); higher = stronger transcriptional activation. To be noted: beta-estradiol 1 µM; induction time 4 h. The procedure, abridged:
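The listed activation activity is a read-weighted mean of bin median fluorescence, averaged across barcodes and linearly mapped onto the initial dataset scale. Barcoded tiles, fused to an estradiol-inducible synthetic transcription factor, were integrated at URA3 in yeast diploids bearing a GFP reporter. Cells were held 4 hours at 30 °C in SC with 1 uM beta-estradiol, sorted into 8 GFP:mCherry bins, and sequenced, and tiles with fewer than 50 reads were excluded.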
Regarding “TSSPSAHSSTNTNVVFVFGSEDKRVKEVGDALKVKLAVKGGGKGVKWSGKFTG”, the “transcriptional activation domain activity” value was 25400.

As to “FLMLVCLEVIGRGLTNKVVLMPSGLYCIPNIIHPKGFQLALEIIFLVLFIPCP”, the “transcriptional activation domain activity” value is 39600. As for “YIPEHLRSYVLVAHLLEMCNLHTVFLPQLLDPLIVLCLQHRLTIQAFAFIKTR”, the “transcriptional activation domain activity” value amounted to 77300. Take “WYGFLVTWGLLVLFIICFYFFISVSCCAFCVLFSSTWSFGRLFLLTFPLILLL”: the “transcriptional activation domain activity” value was 41700.

For “MWVGELLGYYCTMALSKALGCKVRLLRAWAEMHNICGFYSRDSIPCRMYASRV”, the “transcriptional activation domain activity” value was 61800. With “CNVLFYLELVRALVLLHRWDLNTWMLQYSTKTMPPIQPTPLDDFVKYITTFPG” the figure was 42800; with “MALFLGCIDFGQYKLNLEKYSGWLTIPLVPSEQALFYHTVKIIYSIFLHPLRN”, 66500. In the case of “WVMYVIFITVGWYAMVTGQSIVLYSRLHLVVNSIKVLRFVLILICVDVVILHV” it was 67500; in that of “IWDLWTFGGLDFWGLGFGIWDLGLGFGDWDFIYPPPLPVSVFFLLFLSFGVCW”, 56900; in that of “RASAAVPRRRDSTDSSDSEGDIRAAMAAARRKQAKVPAPRPVVENRPAPANTP”, 36300.

For “QWIHQYIAVPSGTPRDKCHLRQFCYMGLEQWGVGFIIGLLPLLLSVSLCIFLV”, the “transcriptional activation domain activity” value is 60400. With “DLQTYVLCLLLLYIARDFVDCLWNLFSTIAILCLVTWVTPMFLIAVFPIGLVY”, the “transcriptional activation domain activity” value was 53700. In the case of “KDHIGMKCVVAIVCLLDTMHQIFITHALYIYLIKGFANPLILTRLLWTFLIQL” it was 56400; in that of “LKEKSLRILILNGLVRLIWTYLYRCQESPSTTTTKLENLLKYLFPPNRTSVYP”, 44900; in that of “MKSLPFGIHTAVCDLISLLLLLLLFFFFFFLLASIWVLDNFFPFFPFSRHLYS”, 37500. In the case of “ALNTFLDGLVFQLFPMVADLWIAAAYFFVVFDAYYSLMVISVTWFYIWMTIYM” it was 55200; in that of “KGRGGGKGRGGGKERGGGKGRGGEGEGEGEGEREGGGRGKERGREGEREGERG”, 21800. In the case of “MRWNRIIIGSHVSVLWMIGYVFTLLLTLVPSPLLEFRYFILPFIFFCIHLPPP” it was 48100; in that of “NVSPGTTDAGPWMRAIEELAGTGVYEHLGYGWKGWLFWLRDRSFCNMLMTGIW”, 54200. “GASGGTKLAKKAPAAAAPKKVAAPKKEAAPKKEIKEKKPAAAPKKAAVPKKEA”: the “transcriptional activation domain activity” value was 38800. In the case of “KIISAFGWNADKHLGFALLQLCMDGNRIRSPLAAMMLLMYYVTLMTHCPQILT” it was 63700; in that of “GDGKEEGAQKKKKKKAKKAHGEEGEQEGGDEKAKKKKKKKKKKALGGRARARA”, 26600; in that of “MLSLIWCFKAWLLTIISLPSYIILRTPLPFLFSSSPLFRSSPFHFFFTSLSTH”, 48100.

Consider “SDEEEKPKPKQGKKKAKAPKKEEEFEGEPEEEEKPKPKKTNGRKKAVKAEEED”, for which the “transcriptional activation domain activity” value stood at 36300.

With “ICIPLPFQTLVCSHIVLTPLFYPLFCTPLDIFYVSNYSCLVLVLSLPFHFFLH”, the “transcriptional activation domain activity” value worked out at 39400. With “GIFCSPFFPFFVPLFCPPFPPPSLFPPLCISLPLSMPNSLLFLFTILYEYAGC” the figure was 56200; with “TDILKFWHLVVHNGMLERAKGLVSITLTSDTRFVFKAISWRLVMLPRLKYLAL”, 76100. With “SSSTVVLAFGTDEKKIKEVGDALKTKLSVKGGGKGPRWSGKFAGVWKEDSAIE” the figure was under 6570; with “AADQVQDTAGQAVNQVGDTAGKALGGLTGGGKKEQGGEEEGGGEQLRLRLELN”, 35700; with “PSRLTSPSSRRLPSTPGPHPRKSTPRSKPPPSSPARRRSSSTTPTGRPSQPSS”, 24900. In the case of “MCNLFSFSVQSISGNGVLYIFSFKVLYTFLPSPLLFLSFFSLLFYFFILSLFS” it was 38400; in that of “MLINKLIVLRELCYSDDAAKQIVMYVISLFLSLIFYSFLPCLGLICLSILVPS”, 49100; in that of “SSSSSSREDGEASDASSSSRDSRRRRRRSTSRDKRPAAESKAATEPAAAKPRN”, 30000.

On to “NNETETATKARRKKQAPKAAVEGSEDYESETATKAVAKKETKKKPIQKEVLVP”, for which the “transcriptional activation domain activity” value was under 6570. With “RASTTSPTCSGTSTSARGRGAACSRGASTSGRCTRSSRRTRGSRSGTATSTTR” the figure was 33600; with “SRITSIGVWYLLIQMIWYILFGILYIWFFCQTWESFTVLLVVDYSLRIILCLM”, 58100; with “KAETTAAKDAGAEPEAKPMRGGGREKKRDAEEAVKKEAVKEKPSKGSTKPASK”, under 6570. With “SLAFQVDFTRKYGMVGFFLFWMMSQEAHHDPLLLLLHSPLYFPIFLLFWVILN” the figure was 68800. In the case of “LLILSLTVPFLHGLLRPHTHYVHLLVVVFLTFSPFFVILTISYEGLFYVIFCI” it was 57900. With “MSWQKVHSLFFLYFILPHGGFLFLVIRNIFFFFTYDLVLLWSFKFLLHLYVIF”, the “transcriptional activation domain activity” value was determined as 59800.

As to “MRTLLMCHANRGIGFFWSGVFLWKVNILAGNGGYSSMCAYVNWLRLTWFSFVA”, the “transcriptional activation domain activity” value stood at 40900. With “FSSLEDSLPSSISPPIQTTSTINFNWCFKEEKNNDLKCKWKECPESCSSLFDL” the figure was 69800; with “AFEVSGKGRSRTREKVTLDLEELAGGAIDMSKSDLEHLVIHLFIKSYLRMSFV”, 43100. In the case of “GGGGGVGGEKGEEGGGEEEEDEEEEEEEGEEDEEEEGGGAAAKEKGKGKGKGK” it was 8640; in that of “RSSRSKRRSRSPHDSSHKRRSRKEGRRPPSRERDEEDGEKRRHRSSRSHRRRR”, 11400. In the case of “KLRKKQHGSNKDTIPSSQSRDIANDYDRGSTDNNLVTTTSTSSIFHDEDLTFF” it was 44400. Turning to “MFISICICSPYFQGCLAHTFYLFFYWGYLDCSLPPLVLQQRLLLWLLFDSFFI”, the “transcriptional activation domain activity” value stood at 46000. Regarding “GPFQSSAQVDGTLDGDLLQELLIAFLSRKKRFVVWKVMKVLFATLLKRMGAHD”, the “transcriptional activation domain activity” value worked out at 55600. With “FFAFTFILMMACLVSGIGWCLLYFTCMYLLLIYYILSLFFYSPLASCNSFFFF” the figure was 27200; with “VGSLVYVTRYSEHLLVSGEFGPELLGAGAYYGGMLWFFFSSQNYRLLFHWQFW”, 49800; with “PSLKCVSLTYDELVRIVAQLLQKAFFKRFPSLKERFYSLVLSFLKKAMVPTNK”, 40500. In the case of “RTTSLGVWFLLIQFLWYGAFGVLYVWFFCQTFEYFNTLLVFDYILRFILCLMF” it was 51200; in that of “DDSRERRRSSRKDREKDRKERKRHRHRSDDKSEDDDDRRHRKDRKRSRPSSAA”, 22100. Turning to “ILKRNMYFIIPLLLLLLGTVALAIYDTIWLLMRTYARGHLSHSHRFWSLLFYS”, the “transcriptional activation domain activity” value came out at 55700. In the case of “MHFVWLYHPFAKYGDFYLILSFTYLRTITDCCSCCIMTTYGMLRIFPIFVILV” it was 79100. In the case of “MSVLYIEDTFPSCFIKFKELVVCSRLCMMFPFQYQFASLLLYLILLLAYHLFL” it was 54300.

On to “DNMSLLNLPILEETVSSGQDDKVEPDEEDIWNYLPSSSSQQEDSSRALKKNTN”, for which the “transcriptional activation domain activity” value is 20900. In the case of “AVAPASTPVATEASPAGAPDAKGKKKEKAAAGANADAAGGKKGKGGAQAAPAT” it was 49500. With “FDETIIQLRKTVLSCSTCCSIALKWFAEHEYALVGLLLRCLHMKVRSQIRAFL”, the “transcriptional activation domain activity” value was determined as 44000. In the case of “GKPRKRLAQACLTCREKKIKCEPGYPKCHQCAKSQRVCRGGLNQASIGNASGE” it was 36100; in that of “VRSTRRSLYFWSCLTCSWGIIIHLLFILLLNFKIFENYGALVVVHFTWCIYVV”, 63300. In the case of “VNHIVAYITLGIVGFCFLSYITLTLMPLIFHDCPYYTPFTSLLWYSAQIIPFF” it was 33600; in that of “LHGSIHEGLCRMLINIFIENLVLKEDVLLALCIQVLFPKEYITKGLMDAIKKD”, 13900.

For “MYCMRYFVPLFLLPFPDSPPIFVILFLISFFLHQKPCIYCTLLLFALFSSTCF”, the “transcriptional activation domain activity” value stood at 48600. With “MFCLRSWIPVLFFLLRTNASPVYLILSISATYFLNRPCVYCSLLLFILVVALF”, the “transcriptional activation domain activity” value is 57600. On to “MIIIIIIIMGNRFMMMSFLFAFFSLFFFLMKFFLSFSFFLFLSFLLIMFAISL”, for which the “transcriptional activation domain activity” value is 62100. As for “SSRRTKKSRRRRRGSSSSSSEAPSRKQRKAAASSSDEEQDRRARRKGKGKGRV”, the “transcriptional activation domain activity” value was determined as 30800. As to “YSHLFNLHTVVFDNYLLYHNAFLLFPLVFCVLPICAIFCFCGMLCNLNRLSGR”, the “transcriptional activation domain activity” value worked out at 66600.

“MEDAGDDATPATKKGKGMKKRKKGEESDGENEKPAKTPKTKLKLTNKTPKEAS”: the “transcriptional activation domain activity” value came out at 36600. With “KVVLLFAGWIIKIIVAKLMLAWSQSMRKVIVQRAQLVYRFGINGMVFYSIGCA” the figure was 60400; with “RAKKDAKESTTSKDTGTGKGAGSSREGRGSRNTSSRGRGSASGRQSTRKSRAR”, 29300; with “LIYNVCTFSLFWIVYRYNLLYVNNFRFDTSGLLFPRALDQLFTGIYVMAVCLI”, 89400. In the case of “VLEQLNLINHFYQFSLKFFLDIFEYVLRQNPNLQNVTDHHARREILFNDIFLV” it was 33600; in that of “MTKPIIIKINHIFALRHYYLPYFHPYILFVFFSSLFTLRGTMWLILLFFGSFA”, 50300.

For the origin of these results see the supplement of paper PMC12636428.
